Laboratory results from PMC1885643 (Nucleic Acids Research, 2007).
Like-named read-outs stand apart in the source and are kept apart here.

T1: FLAG-hRad9 (human, UniProt Q99638 1-391)
T1 sequence (looked up): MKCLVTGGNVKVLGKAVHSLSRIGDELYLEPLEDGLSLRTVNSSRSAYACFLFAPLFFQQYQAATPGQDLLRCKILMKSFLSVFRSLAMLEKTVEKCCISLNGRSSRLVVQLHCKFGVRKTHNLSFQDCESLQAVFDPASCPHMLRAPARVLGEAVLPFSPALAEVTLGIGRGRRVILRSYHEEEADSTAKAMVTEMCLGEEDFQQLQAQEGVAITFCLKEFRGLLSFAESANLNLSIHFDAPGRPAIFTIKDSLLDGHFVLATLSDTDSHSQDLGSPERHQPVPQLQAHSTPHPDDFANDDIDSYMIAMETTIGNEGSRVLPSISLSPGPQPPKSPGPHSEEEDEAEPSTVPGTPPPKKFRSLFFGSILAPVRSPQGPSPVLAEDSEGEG

B1: FLAG-hRad1 (natural protein, human, UniProt O60671 1-282, looked up)
chain: MPLLTQQIQDEDDQYSLVASLDNVRNLSTILKAIHFREHATCFATKNGIKVTVENAKCVQANAFIQAGIFQEFKVQEESVTFRINLTVLLDCLSIFGSSPMPGTLTALRMCYQGYGYPLMLFLEEGGVVTVCKINTQEPEETLDFDFCSTNVINKIILQSEGLREAFSELDMTSEVLQITMSPDKPYFRLSTFGNAGSSHLDYPKDSDLMEAFHCNQTQVNRYKISLLKPSTKALVLSCKVSIRTDNRGFLSLQYMIRNEDGQICFVEYYCCPDEEVPESES
B2: GST-hRad1 (natural protein, human, UniProt O60671 1-282, looked up)
chain: B1 chain
B3: GST-hHus1 (natural protein, human, UniProt O60921 1-280, looked up)
chain: MKFRAKIVDGACLNHFTRISNMIAKLAKTCTLRISPDKLNFILCDKLANGGVSMWCELEQENFFNEFQMEGVSAENNEIYLELTSENLSRALKTAQNARALKIKLTNKHFPCLTVSVELLSMSSSSRIVTHDIPIKVIPRKLWKDLQEPVVPDPDVSIYLPVLKTMKSVVEKMKNISNHLVIEANLDGELNLKIETELVCVTTHFKDLGNPPLASESTHEDRNVEHMAEVHIDIRKLLQFLAGQQVNPTKALCNIVNNKMVHFDLLHEDVSLQYFIPALS
B4: His-tagged hHus1 (natural protein, human, UniProt O60921 1-280, looked up)
chain: B3 chain
B5: FLAG-hHus1 (natural protein, human, UniProt O60921 1-280, looked up)
chain: B3 chain

Assays:
[1] = molecular target: GST-hNEIL1 (residues 1–390) (human, UniProt Q96FI4 1-390); assay: pull-down
Sequence of GST-hNEIL1 (residues 1–390) (Q96FI4 whole entry, the tested form may be a part): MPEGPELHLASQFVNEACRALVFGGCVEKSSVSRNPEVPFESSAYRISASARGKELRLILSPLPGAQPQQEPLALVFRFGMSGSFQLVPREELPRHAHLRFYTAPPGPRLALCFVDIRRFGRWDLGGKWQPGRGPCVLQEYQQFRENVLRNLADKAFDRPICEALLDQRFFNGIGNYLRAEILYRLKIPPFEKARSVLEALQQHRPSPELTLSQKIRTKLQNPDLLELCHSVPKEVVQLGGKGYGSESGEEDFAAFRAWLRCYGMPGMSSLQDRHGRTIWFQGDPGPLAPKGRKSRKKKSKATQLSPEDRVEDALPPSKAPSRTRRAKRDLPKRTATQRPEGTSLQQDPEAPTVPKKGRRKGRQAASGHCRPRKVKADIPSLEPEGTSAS

FLAG-hRad9 = molecular target: T1, FLAG-hRad9; assay: SEC
[2] = molecular target: T2, processed intact hNEIL1 (residues 2–390) (human, UniProt Q96FI4 2-390); assay: pull-down
T2 sequence (Q96FI4 2-390): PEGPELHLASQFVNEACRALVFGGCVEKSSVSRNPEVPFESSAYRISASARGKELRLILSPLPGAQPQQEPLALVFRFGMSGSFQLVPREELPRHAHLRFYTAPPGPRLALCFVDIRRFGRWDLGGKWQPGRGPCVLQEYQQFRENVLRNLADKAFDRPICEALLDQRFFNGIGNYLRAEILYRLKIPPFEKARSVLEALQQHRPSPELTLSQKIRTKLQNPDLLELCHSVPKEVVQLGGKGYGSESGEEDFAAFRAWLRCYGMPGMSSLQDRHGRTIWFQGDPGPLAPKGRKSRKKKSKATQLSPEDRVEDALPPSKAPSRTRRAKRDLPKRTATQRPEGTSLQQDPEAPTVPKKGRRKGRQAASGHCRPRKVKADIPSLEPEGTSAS

[3] = molecular target: T3, hNEIL1-CΔ40 (residues 2–350) (human, UniProt Q96FI4 2-350); assay: pull-down
T3 sequence (Q96FI4 2-350, stated change not applied): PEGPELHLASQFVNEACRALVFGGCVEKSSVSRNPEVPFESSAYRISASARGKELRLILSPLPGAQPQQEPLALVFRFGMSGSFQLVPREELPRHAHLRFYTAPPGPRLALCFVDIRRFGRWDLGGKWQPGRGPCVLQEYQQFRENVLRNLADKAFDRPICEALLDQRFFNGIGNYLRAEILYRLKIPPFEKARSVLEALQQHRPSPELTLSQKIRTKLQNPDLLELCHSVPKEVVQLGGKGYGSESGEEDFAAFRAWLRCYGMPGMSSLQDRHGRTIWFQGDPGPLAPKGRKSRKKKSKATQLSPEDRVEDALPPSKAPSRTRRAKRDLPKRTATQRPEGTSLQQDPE

[4] = molecular target: T2, processed intact hNEIL1 (residues 2–390); assay: pull-down; remark: listed apart in the source
[5] = molecular target: T3, hNEIL1-CΔ40 (residues 2–350); assay: pull-down; remark: listed apart in the source
FLAG-hRad1 = molecular target: B1; assay: SEC

| Binder | binding result [1] | binding result (FLAG-hRad9) | binding result [2] | binding result [3] | further results |
| --- | --- | --- | --- | --- | --- |
| B1 | binds | binds | – | – | – |
| B2 | – | – | binds | binds | – |
| B3 | – | – | binds | binds | – |
| B4 | – | – | – | – | binding result [4]: binds; binding result [5]: binds |
| B5 | binds | binds | – | – | binding result (FLAG-hRad1): binds |
